# Measured values published in the Immune Epitope Database (IEDB).
# How the values were obtained:
# [1] = biological target: HLA-B*57:01; experiment: IEDB peptide-MHC binding, purified MHC/direct/fluorescence; filed as Kd, often an IC50 or EC50 that approximates it; ≥ and ≤ were set here for values at or beyond the usual limits of such assays; settings: source organism: Marburg virus - Musoke, Kenya, 1980
# [2] = biological target: HLA-A*11:01; experiment: as above
# [3] = biological target: HLA-A*01:01; experiment: as above; settings: source organism: Marburg virus - Musoke, Kenya, 1980
# [4] = biological target: HLA-B*39:01; experiment: as above; settings: source organism: Ravn virus - Ravn, Kenya, 1987
# [5] = biological target: HLA-A*68:02; experiment: as above
# [6] = biological target: HLA-B*18:01; experiment: as above; settings: source organism: Marburg virus - Musoke, Kenya, 1980
# [7] = biological target: HLA-A*26:03; experiment: as above; settings: source organism: Ravn virus - Ravn, Kenya, 1987
# [8] = biological target: HLA-B*15:01; experiment: as above; settings: source organism: Marburg virus - Musoke, Kenya, 1980
# [9] = biological target: HLA-B*15:09; experiment: as above; settings: source organism: Ravn virus - Ravn, Kenya, 1987
# [10] = biological target: HLA-B*07:02; experiment: as above
# [11] = biological target: HLA-A*24:03; experiment: as above
# [12] = biological target: HLA-B*58:01; experiment: as above; settings: source organism: Ravn virus - Ravn, Kenya, 1987
# [13] = biological target: HLA-A*69:01; experiment: as above; settings: source organism: Marburg virus - Musoke, Kenya, 1980
# [14] = biological target: HLA-A*02:01; experiment: as above; settings: source organism: Marburg virus - Musoke, Kenya, 1980
# [15] = biological target: HLA-A*02:06; experiment: IEDB peptide-MHC binding, purified MHC/competitive/fluorescence; filed as Kd, often an IC50 or EC50 that approximates it; ≥ and ≤ were set here for values at or beyond the usual limits of such assays; settings: source organism: Orthomarburgvirus marburgense
# [16] = biological target: HLA-B*15:17; experiment: as above
# [17] = biological target: HLA-A*31:01; experiment: as above
# [18] = biological target: HLA-A*26:02; experiment: as above; settings: source organism: Orthomarburgvirus marburgense
# [19] = biological target: HLA-A*02:19; experiment: IEDB peptide-MHC binding, purified MHC/direct/fluorescence; filed as Kd, often an IC50 or EC50 that approximates it; ≥ and ≤ were set here for values at or beyond the usual limits of such assays
# [20] = biological target: HLA-A*23:01; experiment: as above
# [21] = biological target: HLA-A*03:01; experiment: as above
# [22] = biological target: HLA-A*02:03; experiment: as above
# [23] = biological target: HLA-A*02:16; experiment: as above
# [24] = biological target: HLA-A*02:12; experiment: as above
# [25] = biological target: HLA-A*02:11; experiment: as above
# [26] = biological target: HLA-A*29:02; experiment: as above
# [27] = biological target: HLA-B*46:01; experiment: IEDB peptide-MHC binding, purified MHC/competitive/fluorescence; filed as Kd, often an IC50 or EC50 that approximates it; ≥ and ≤ were set here for values at or beyond the usual limits of such assays
# [28] = biological target: HLA-B*57:01; experiment: as above
# [29] = biological target: HLA-B*27:03; experiment: as above
# [30] = biological target: HLA-B*39:01; experiment: as above
# [31] = biological target: HLA-B*18:01; experiment: as above
# [32] = biological target: HLA-A*26:01; experiment: as above
# [33] = biological target: HLA-B*51:01; experiment: as above
# [34] = biological target: HLA-A*69:01; experiment: as above
# [35] = biological target: HLA-A*02:01; experiment: as above
# [36] = biological target: HLA-B*15:01; experiment: as above
# [37] = biological target: HLA-A*26:01; experiment: IEDB peptide-MHC binding, purified MHC/direct/fluorescence; filed as Kd, often an IC50 or EC50 that approximates it; ≥ and ≤ were set here for values at or beyond the usual limits of such assays; settings: source organism: Sudan ebolavirus - Uganda (2000)
# [38] = biological target: HLA-B*35:01; experiment: IEDB peptide-MHC binding, purified MHC/competitive/fluorescence; filed as Kd, often an IC50 or EC50 that approximates it; ≥ and ≤ were set here for values at or beyond the usual limits of such assays; settings: source organism: Zaire ebolavirus
# [39] = source organism: Marburg virus - Musoke, Kenya, 1980
# [40] = source organism: Orthomarburgvirus marburgense
# [41] = source organism: Bacillus cereus NVH0597-99
# [42] = source organism: Bacillus thuringiensis serovar israelensis ATCC 35646
# [43] = source organism: Ravn virus - Ravn, Kenya, 1987
# [44] = source organism: Zaire ebolavirus
# [45] = source organism: Vibrio vulnificus CMCP6
# [46] = source organism: Vibrio vulnificus YJ016
# [47] = source organism: Orthohantavirus tulaense
sequence,measurement,setting,value
LFLSFCSLF,Kd,[1],≥ 20 µM
same,Kd,[2]; [39],≥ 20 µM
same,Kd,[3],≥ 20 µM
same,Kd,[4],≥ 20 µM
same,Kd,[5]; [39],≥ 20 µM
same,Kd,[6],≥ 20 µM
same,Kd,[7],≥ 20 µM
same,Kd,[8],≥ 20 µM
same,Kd,[9],≥ 20 µM
same,Kd,[10]; [39],≥ 20 µM
same,Kd,[11]; [39],0.245 µM
same,Kd,[12],1.38 µM
same,Kd,[13],≥ 20 µM
same,Kd,[14],≥ 20 µM
same,Kd,[15],≥ 20 µM
same,Kd,[16]; [40],≥ 20 µM
same,Kd,[17]; [40],≥ 20 µM
same,Kd,[18],≥ 20 µM
ITMYVAFEQ,Kd,[19]; [41],≥ 20 µM
same,Kd,[20]; [41],≥ 20 µM
same,Kd,[2]; [41],≥ 20 µM
same,Kd,[21]; [41],≥ 20 µM
same,Kd,[5]; [41],≥ 20 µM
same,Kd,[22]; [41],≥ 20 µM
same,Kd,[23]; [41],≥ 20 µM
same,Kd,[24]; [41],≥ 20 µM
same,Kd,[11]; [41],≥ 20 µM
same,Kd,[25]; [41],≥ 20 µM
same,Kd,[26]; [41],≥ 20 µM
same,Kd,[27]; [42],≥ 20 µM
same,Kd,[28]; [42],≥ 20 µM
same,Kd,[16]; [42],≥ 20 µM
same,Kd,[29]; [42],≥ 20 µM
same,Kd,[30]; [42],≥ 20 µM
same,Kd,[31]; [42],≥ 20 µM
same,Kd,[32]; [42],≥ 20 µM
same,Kd,[33]; [42],≥ 20 µM
same,Kd,[34]; [42],≥ 20 µM
same,Kd,[35]; [42],≥ 20 µM
GLSFLNPEK,Kd,[19]; [43],≥ 20 µM
same,Kd,[20]; [43],≥ 20 µM
same,Kd,[21]; source organism: Sudan ebolavirus - Maleo (1979),0.152 µM
same,Kd,[5]; [43],≥ 20 µM
same,Kd,[22]; [43],≥ 20 µM
same,Kd,[24]; [43],≥ 20 µM
same,Kd,[11]; [43],≥ 20 µM
same,Kd,[27]; [44],≥ 20 µM
same,Kd,[28]; [44],≥ 20 µM
same,Kd,[16]; [44],≥ 20 µM
same,Kd,[29]; [44],≥ 20 µM
same,Kd,[30]; [44],≥ 20 µM
same,Kd,[31]; [44],≥ 20 µM
same,Kd,[36]; [44],≥ 20 µM
same,Kd,[32]; [44],≥ 20 µM
same,Kd,[33]; [44],≥ 20 µM
same,Kd,[34]; [44],≥ 20 µM
ATAAATEAY,Kd,[19]; [44],≥ 20 µM
same,Kd,[20]; [44],≥ 20 µM
same,Kd,[21]; [44],≥ 20 µM
same,Kd,[5]; [44],≥ 20 µM
same,Kd,[22]; [44],≥ 20 µM
same,Kd,[23]; [44],≥ 20 µM
same,Kd,[24]; [44],≥ 20 µM
same,Kd,[37],0.216 µM
same,Kd,[11]; [44],≥ 20 µM
same,Kd,[25]; [44],≥ 20 µM
same,Kd,[27]; [44],≥ 20 µM
same,Kd,[28]; [44],≥ 20 µM
same,Kd,[29]; [44],≥ 20 µM
same,Kd,[30]; [44],≥ 20 µM
same,Kd,[31]; [44],≥ 20 µM
same,Kd,[34]; [44],≥ 20 µM
same,Kd,[35]; [44],≥ 20 µM
FPSNMMVVT,Kd,[19]; [43],≥ 20 µM
same,Kd,[20]; [43],≥ 20 µM
same,Kd,[21]; [43],≥ 20 µM
same,Kd,[5]; [43],≥ 20 µM
same,Kd,[22]; [43],≥ 20 µM
same,Kd,[23]; [43],≥ 20 µM
same,Kd,[24]; [43],≥ 20 µM
same,Kd,[10]; [44],0.751 µM
same,Kd,[11]; [43],≥ 20 µM
same,Kd,[25]; [43],≥ 20 µM
same,Kd,[26]; [43],≥ 20 µM
same,Kd,[27]; [44],≥ 20 µM
same,Kd,[28]; [44],≥ 20 µM
same,Kd,[16]; [44],≥ 20 µM
same,Kd,[29]; [44],≥ 20 µM
same,Kd,[30]; [44],≥ 20 µM
same,Kd,[38],0.0004 µM
same,Kd,[31]; [44],≥ 20 µM
same,Kd,[36]; [44],≥ 20 µM
same,Kd,[32]; [44],≥ 20 µM
same,Kd,[33]; [44],≥ 20 µM
same,Kd,[34]; [44],≥ 20 µM
same,Kd,[35]; [44],≥ 20 µM
SVMSTFFWE,Kd,[19]; [45],≥ 20 µM
same,Kd,[20]; [45],≥ 20 µM
same,Kd,[2]; [45],0.35 µM
same,Kd,[21]; [45],≥ 20 µM
same,Kd,[5]; [45],≥ 20 µM
same,Kd,[22]; [45],≥ 20 µM
same,Kd,[23]; [45],≥ 20 µM
same,Kd,[24]; [45],≥ 20 µM
same,Kd,[11]; [45],≥ 20 µM
same,Kd,[25]; [45],≥ 20 µM
same,Kd,[26]; [45],≥ 20 µM
same,Kd,[27]; [46],≥ 20 µM
same,Kd,[28]; [46],≥ 20 µM
same,Kd,[16]; [46],≥ 20 µM
same,Kd,[29]; [46],≥ 20 µM
same,Kd,[30]; [46],≥ 20 µM
same,Kd,[31]; [46],≥ 20 µM
same,Kd,[32]; [46],≥ 20 µM
same,Kd,[33]; [46],≥ 20 µM
same,Kd,[34]; [46],≥ 20 µM
same,Kd,[35]; [46],≥ 20 µM
SLMSRVVYK,Kd,[19]; [47],≥ 20 µM
same,Kd,[20]; [47],≥ 20 µM
same,Kd,[21]; source organism: Orthohantavirus prospectense,0.0772 µM
same,Kd,[5]; [47],≥ 20 µM
same,Kd,[22]; [47],≥ 20 µM
same,Kd,[23]; [47],≥ 20 µM
same,Kd,[24]; [47],≥ 20 µM
same,Kd,[11]; [47],≥ 20 µM
same,Kd,[26]; [47],≥ 20 µM
same,Kd,[27]; [47],≥ 20 µM
same,Kd,[28]; [47],≥ 20 µM
same,Kd,[16]; [47],≥ 20 µM
same,Kd,[29]; [47],≥ 20 µM
same,Kd,[17]; [47],0.0031 µM
same,Kd,[30]; [47],≥ 20 µM
same,Kd,[31]; [47],≥ 20 µM
same,Kd,[36]; [47],≥ 20 µM
same,Kd,[32]; [47],≥ 20 µM
same,Kd,[33]; [47],≥ 20 µM
same,Kd,[34]; [47],≥ 20 µM
